Results reported in the supplement of paper PMC11780869.

Test system: Bacillus subtilis
Assay: cleaved RNA product abundance (RNA/gDNA barcode ratio) relative to median wild-type variant (ratio to wild type); higher = more accumulation of the downstream cleavage product
Method in brief: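 Oligos with a 9% error rate were used to build barcoded, mutagenized RNase Y cleavage-site windows within truncated aprE or tetM reporter mRNAs, which were integrated into the B. subtilis chromosome. Cultures were grown in LB at 37°C between OD600 0.0003 and 0.3. Cleaved RNA was gel-selected, reverse transcribed and barcode-sequenced, as were genomic DNA barcodes, and UMIs were collapsed. Cleaved product abundance is the scaled RNA:gDNA barcode ratio, with the median construct carrying the unmutated site as reference.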

[1] = experiment (reporter, strain, medium): exp 4a: truncated aprE reporter, strain BJT201 with 2% xylose (RNase J1 expressed), cleavage site: cggR-gapA (positions -7 to +36 mutated)
[2] = experiment (reporter, strain, medium): exp 2b: truncated aprE reporter, strain BJT200, cleavage site: cggR-gapA (positions -7 to +36 mutated)
[3] = experiment (reporter, strain, medium): exp 8a: truncated aprE reporter, strain BJT201 with 2% xylose (RNase J1 expressed), cleavage site: glnRA (positions -5 to +31 mutated)

Sequence	cleaved RNA product abundance [1]	cleaved RNA product abundance [2]	other results
ACAGACGAAGGAGCCGCAAAGAAGTTATAAAGGGCTGAATAATCCCTCAATATAAATATCTCTCACTTATTTAAA	0.286	–	–
ACAGACGAAGGAGCCGCAAAAAAGTTATTAAGGGATGAATAATCCCTCGATATAAATATCTCTCACTTATTTAAA	0.555	0.396	–
ACAGACGAAGGAGCCGCAAACACGTTATTAAGGGATGAATAATCCCTCAATATAAATATCTCTCACTTATTTAAA	1.21	–	–
ACAGACGAAGGAGCCGCAAAGAAGTTATTAAGGGATGAATAATCCCTTAAAATAAATATCTCTCACTTATTTAAA	0.862	–	–
ACAGACGAAGGAGCCGCAAAGAATTTATTAAGGGATGAATAAACCCTCAATATAAATATCTCTCACTTATTTAAA	0.292	0.322	–
ACAGACGAAGGAGCCGCAAAGAAGTTATTAAGGGATGAATAATACCTCCATATAAATATCTCTCACTTATTTAAA	0.092	0.069	–
ACAGACGAAGGAGCCGCAAAGAAGTTATTAAGGGATGAATAATCCATCAATAGAAATATCTCTCACTTATTTAAA	0.0602	0.0728	–
ACAGACGAAGGAGCCGCAAACAAGTTATTAAGGGATGAATAATCCCTCCATATAAATATCTCTCACTTATTTAAA	0.207	–	–
ACAGACGAAGGAGCCGCAAAGATGTTATTAAAGGATGAATAATCCCTCAATATAAATATCTCTCACTTATTTAAA	0.129	–	–
ACAGACGAAGGAGCCGCAAAGATGTTATTAAGGGATGAATAATCCATCAATATAAATATCTCTCACTTATTTAAA	0.311	0.171	–
CGACATGTCCCGCTTCTTTCATTAAACTGTTAGCAACTGTTTTGCTATATACATTTACCTTTTAAGAGGAGGAAT	–	–	cleaved RNA product abundance [3]: 1.02
ACAGACGAAGGAGCCGCAAAGAAGTTATTAAGGGATGAGTAATCCCTCAATATAAATATCTCTCACTTATTTAAA	0.596	0.484	cleaved RNA product abundance (experiment (reporter, strain, medium): exp 6: tetM reporter, strain 168, cleavage site: cggR-gapA (positions -7 to +36 mutated)): 0.74
CGACATGTCCCGCTTCTTTCATTAATCCGTTAGCAACTGTTTTGCAATATACATTAACCTTTTAAGAGGAGGAAT	–	–	cleaved RNA product abundance [3]: 0.691
ACAGACGAAGGAGCCGCAAAGATGTTATTAAGGGATGAATAATCCCTCAATATACATATCTCTCACTTATTTAAA	0.483	–	–
CGACATGTCCCGCTTCTTTCATTAATCCGTTAGCAACTGTTTTTCTATATACATTTACCTTTTAAGAGGAGGAAT	–	–	cleaved RNA product abundance [3]: 0.576
ACAGACGAAGGAGCCGCAAAGAAGTTATTAAGGGATGAATAATCCCTCAAAATATATATCTCTCACTTATTTAAA	0.304	–	–
ACAGACGAAGGAGCCGCAAAGAAGTTATTAAGAAATGAATAATCCCTCAATATAAATATCTCTCACTTATTTAAA	0.1	0.0992	–
ACAGACGAAGGAGCCGCAAAGAAGTTATTAAGGGATAAATAATCCCTCAATATAATTATCTCTCACTTATTTAAA	0.532	0.507	–
CGACATGTCCCGCTTCTTTCATTAATCCGTTAGCAACTGTTGTACTATATACATTTACCTTTTAAGAGGAGGAAT	–	–	cleaved RNA product abundance [3]: 0.713
ACAGACGAAGGAGCCGCAAAGAAGTTATTAAGGGATGAATAAACCCGCAATATAAATATCTCTCACTTATTTAAA	0.103	–	–
CGACATGTCCCGCTTCTTTCATTAACCCGTTAGCAACTGTTTTGCTATATAAATTTACCTTTTAAGAGGAGGAAT	–	–	cleaved RNA product abundance [3]: 0.627
CGACATGTCCCGCTTCTTTCATTAATCCGTTACCAACTCTTTTGCTATATACATTTACCTTTTAAGAGGAGGAAT	–	–	cleaved RNA product abundance [3]: 0.128
ACAGACGAAGGAGCCGCAAATAAGTTATTAAGGGATGAACAATCCCTCAATATAAATATCTCTCACTTATTTAAA	0.924	0.897	–

Sequence	cleaved RNA product abundance [1]	cleaved RNA product abundance [2]	other results
ACAGACGAAGGAGCCGCAAAGAAGTTATTAAGAGATAAATAATTCCTCAATATAAATATCTCTCACTTATTTAAA	–	0.102	–
ACAGACGAAGGAGCCGCAAAGAAGTTATTAAGGGATTAATAATTCCTCAATATAAATATCTCTCACTTATTTAAA	0.569	0.543	–
ACAGACGAAGGAGCCGCAAAGAAGTTATTAAGGGAAGAATAATCCCTCTATATAAATATCTCTCACTTATTTAAA	0.239	–	–
ACAGACGAAGGAGCCGCAAAGAAGTTATTAAGGGATGAATCTTCCCTCAATATAAATATCTCTCACTTATTTAAA	1.05	–	–
CGACATGTCCCGCTTCTTTCATTACTCCGTTAGCAACTGTTTTGCTATATAAATTTACCTTTTAAGAGGAGGAAT	–	–	cleaved RNA product abundance [3]: 0.276
ACAGACGAAGGAGCCGCAAAGATGATATTAAGGGATGAATAATCCCTCAATATAAATATCTCTCACTTATTTAAA	0.676	0.664	–
ACAGACGAAGGAGCCGCAAAGAAGTTATTCAGGGATGAATAATTCCTCAATATAAATATCTCTCACTTATTTAAA	0.513	–	–
ACAGACGAAGGAGCCGCAAAGAAGTTACTAAGGGATGAATAATCCCTCATTATAAATATCTCTCACTTATTTAAA	0.342	0.218	–
ACAGACGAAGGAGCCGCAAAGAAATTATGAAGGGATGAATAATCCCTCAATATAAATATCTCTCACTTATTTAAA	0.386	–	–
CGACATGTCCCGCTTCTTTCATTAATCCGTTAGCATCTGTTTTTCTATATACATTTACCTTTTAAGAGGAGGAAT	–	–	cleaved RNA product abundance [3]: 0.273
CGACATGTCCCGCTTCTTTCATTATTCCGTTAGCAACTGTTTTGCTATATACATTTACTTTTTAAGAGGAGGAAT	–	–	cleaved RNA product abundance [3]: 1.96
ACAGACGAAGGAGCCGCAAAGAAGTTAGTAAGGGATGAATAATCCCTCAATATAAATGTCTCTCACTTATTTAAA	–	0.187	–
ACAGACGAAGGAGCCGCAAAGCAGTTATTAAGGAATGAATAATCCCTCAATATAAATATCTCTCACTTATTTAAA	0.0974	–	–
ACAGACGAAGGAGCCGCAAAGAAGTTATTAGGGCATGAATAATCCCTCAATATAAATATCTCTCACTTATTTAAA	0.132	–	–
ACAGACGAAGGAGCCGCAAAGAAGTGATTAAGCGATGAATAATCCCTCAATATAAATATCTCTCACTTATTTAAA	0.131	0.115	–
ACAGACGAAGGAGCCGCAAAGAAGTAATTAAGGGATGAATAATTCCTCAATATAAATATCTCTCACTTATTTAAA	0.263	–	–
CGACATGTCCCGCTTCTTTCATTAATCCGTTACCAAATGTTTTGCTATATACATTTACCTTTTAAGAGGAGGAAT	–	–	cleaved RNA product abundance [3]: 0.256
ACAGACGAAGGAGCCGCAAAGAAGTTATTAAGGTATGAATAATCCCTCAATATATATATCTCTCACTTATTTAAA	0.0867	0.121	–
CGACATGTCCCGCTTCTTTCATTAATCCGTTAGCAACTGTTTTGCTATAAACATTTACCTTTTAAGAGGAGGAAT	–	–	cleaved RNA product abundance [3]: 0.603
ACAGACGAAGGAGCCGCAAAGAAGTTATTAAGGGATGAATAATCCCTCAATATAAATTTGTCTCACTTATTTAAA	–	0.98	–
ACAGACGAAGGAGCCGCAAAGCAGTTATTAAGGGATGCATAATCCCTCAATATAAATATCTCTCACTTATTTAAA	–	0.0725	–
ACAGACGAAGGAGCCGCAAAGAAGTTATTAAGGGAGCAATAATCCCTCAATATAAATATCTCTCACTTATTTAAA	0.631	–	–
ACAGACGAAGGAGCCGCAAAGAAGTTATTAATGGATGAATAATCCCTCAATAAAAATATCTCTCACTTATTTAAA	0.108	0.136	–
